Data from US20050136043A1, “TGFbeta signaling inhibitors” (Ludwig Institute for Cancer Research, priority 2003, published 2005).
No end group written: not given here.

Molecular target: GST-TβR-I (GST fused to the cytoplasmic part, residues 148-503, of constitutively active TβR-I T204D, FLAG-tagged at the C-terminus), P36897
Test: cell-based or functional assay

Chain of GST-TβR-I (GST fused to the cytoplasmic part, residues 148-503, of constitutively active TβR-I T204D, FLAG-tagged at the C-terminus), P36897 (P36897 148-503 T204D, form in doubt): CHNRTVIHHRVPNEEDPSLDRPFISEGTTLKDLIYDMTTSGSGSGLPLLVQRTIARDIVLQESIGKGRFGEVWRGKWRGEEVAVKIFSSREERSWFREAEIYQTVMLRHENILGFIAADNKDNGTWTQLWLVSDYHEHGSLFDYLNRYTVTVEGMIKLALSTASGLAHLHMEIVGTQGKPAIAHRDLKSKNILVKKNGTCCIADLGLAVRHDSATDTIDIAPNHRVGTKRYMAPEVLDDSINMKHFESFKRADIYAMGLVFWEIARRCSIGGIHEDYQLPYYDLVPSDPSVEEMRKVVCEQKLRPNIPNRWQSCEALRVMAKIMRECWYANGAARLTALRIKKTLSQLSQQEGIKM

| peptide concentration at which the effect was observed, in vitro kinase assay [µM] | peptide concentration of maximal inhibition, in vitro kinase assay [µM] | Binder |
| --- | --- | --- |
| 10 | 200 | RQIKIWFQNRRMKWKKTQMGSPSVRCSAMA-OH |
| 10 | 200 | RQIKIWFQNRRMKWKKTQMGSPSVRCSSMS-OH [antp-Sm2S peptide (penetratin fused to the C-terminus of wild-type Smad2)] |
